Laboratory results published in article PMC3102117, “L,L-Diaminopimelate Aminotransferase from Chlamydomonas reinhardtii: A Target for Algaecide Development” (PLoS ONE, 2011).

Legend:
[1] = biological target: L,L-diaminopimelate aminotransferase from Chlamydomonas reinhardtii (Chlamydomonas reinhardtii); assay: AUC; sedimentation velocity, 9.2 µM (0.45 mg/mL) Cr-DapL, 20 °C, 50 mM HEPES, 0.5 mM DTT, 1 mM EDTA, 50 mM NaCl pH 8.0, 45,000 rpm; c(s) and c(M) distributions in SEDFIT
purified protein [2] = substrate: N[C@@H](CCC(=O)O)C(=O)O; assay: purified protein; format: biochemical, Chlamydomonas reinhardtii; conditions: forward direction, amino donor, saturating THDPA generated in situ from meso-DAP by C. glutamicum Ddh, 100 mM HEPES-KOH pH 7.6
purified protein [3] = substrate: N[C@@H](CCC[C@H](N)C(=O)O)C(=O)O; assay: purified protein; format: biochemical, Chlamydomonas reinhardtii; conditions: reverse direction, amino donor, saturating 2-oxoglutarate, 0.3 mM NADPH, 50 mM NH4Cl, 100 mM HEPES-KOH pH 7.6, 30 °C
purified protein [4] = substrate: O=C(O)C1=N[C@H](C(=O)O)CCC1; assay: purified protein; format: biochemical, Chlamydomonas reinhardtii; conditions: forward direction, co-substrate glutamate 5.0 mM, THDPA generated in situ from meso-DAP by C. glutamicum Ddh with NADP, 100 mM HEPES-KOH pH 7.6
purified protein [5] = substrate: O=C(O)CCC(=O)C(=O)O; assay: purified protein; format: biochemical, Chlamydomonas reinhardtii; conditions: reverse direction, amino acceptor, saturating L,L-DAP, 0.3 mM NADPH, 50 mM NH4Cl, 100 mM HEPES-KOH pH 7.6, 30 °C

In the case of “L,L-diaminopimelate aminotransferase from Chlamydomonas reinhardtii (enzyme)”, the stoichiometry N [1] is reported as 2.

B1: Cr-DapL (Chlamydomonas reinhardtii) (protein)
chain: MQLNVRSTASGARSSTRSRRMTAVVQAVAQRAGTIDVQRNENFGKLRAGYLFPEIARRRKAHQEKNPDAKIISLGIGDTTEPLPKYIADAMAKAAAGLATREGYSGYGAEQGQGALREAVASTFYGHAGRAADEIFISDGSKCDIARIQMMFGSKPTVAVQDPSYPVYVDTSVMMGMTGDHNGTGFDGIEYMVCNPDNHFFPDLSKAKRTDIIFFCSPNNPTGAAATRAQLTELVNFARKNGSILVYDAAYALYISNPDCPKTIYEIPGADEVAIETCSFSKYAGFTGVRLGWTVVPKALKYANGEPVHADWNRVMTTCFNGASNIVQAGGLACLQPEGLKEMNAMIKFYKENAQILKTTFTEMGFSVYGGDDAPYIWVGFPGKPSWDVFAEILERCNIVTTPGSGFGPAGEGFVRASAFGSRENILEAVRRFKEAYGKRN
notes: monomeric mass 48,830 Da; dimer; EC 2.6.1.83
B1 showed a Km (purified protein [2]) of 900 ± 400 µM, a kcat (purified protein [2]) of 1.1 s⁻¹ and a Km (purified protein [3]) of 300 ± 20 µM. It also gave a Vmax (purified protein [3]) of 11.6 µmol/min/mg, a kcat (purified protein [3]) of 19 s⁻¹ and a Km (purified protein [4]) of 100 ± 10 µM. The Vmax (purified protein [4]) was 0.68 µmol/min/mg, the kcat (purified protein [4]) was 1.1 s⁻¹ and the Km (purified protein [5]) was 2200 ± 700 µM. The kcat (purified protein [5]) was 19.0 s⁻¹.
